Test results: the supplement of paper PMC10567573

B1: FBF1 (parent)
chain: LQRASILDMRRDHEEQLQRLKLLK

Variants of: B1
Assay: protein stability index of a GFP-peptide fusion (GPS, HEK-293T) (PSI 1-6); higher = more stable
Conditions: c terminus: a fixed tail appended
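Further: lentivirally expressed fusions sorted by FACS into six bins by GFP to DsRed ratio, PSI derived from sequencing read proportions per bin multiplied by bin number.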

In order of rising protein stability index:
1. LQRASILLMRRDHEEQLQRLKLLK [D8L]  2.19
2. LQRAYILDMRRDHEEQLQRLKLLK [S5Y]  2.26
3. LQRASILVMRRDHEEQLQRLKLLK [D8V]  2.33
4. LQRASILDMRRWHEEQLQRLKLLK [D12W]  2.34
5. LQRAIILDMRRDHEEQLQRLKLLK [S5I]  2.34
6. LQRAWILDMRRDHEEQLQRLKLLK [S5W]  2.34
7. LQRASILDMFRDHEEQLQRLKLLK [R10F]  2.36
8. LQRASILDMRRDHFEQLQRLKLLK [E14F]  2.38
9. LQRALILDMRRDHEEQLQRLKLLK [S5L]  2.49
10. LQRASILWMRRDHEEQLQRLKLLK [D8W]  2.5
11. LQRASILDMLRDHEEQLQRLKLLK [R10L]  2.5
12. LQRASILDMRRDHECQLQRLKLLK [E15C]  2.5
13. LQRASILIMRRDHEEQLQRLKLLK [D8I]  2.51
14. LQRASILDMRRCHEEQLQRLKLLK [D12C]  2.51
15. LQRASILDMRRDHMEQLQRLKLLK [E14M]  2.56
16. LQRASILFMRRDHEEQLQRLKLLK [D8F]  2.56
17. LQRASILDMYRDHEEQLQRLKLLK [R10Y]  2.59
18. LQRASILDMRRDHVEQLQRLKLLK [E14V]  2.69
19. LQRASILDMRRDHWEQLQRLKLLK [E14W]  2.69
20. LQRASILRMRRDHEEQLQRLKLLK [D8R]  2.71
21. LQRASILYMRRDHEEQLQRLKLLK [D8Y]  2.72
22. LQRASILDMRRFHEEQLQRLKLLK [D12F]  2.74
23. LQRASILGMRRDHEEQLQRLKLLK [D8G]  2.76
24. LQRASILKMRRDHEEQLQRLKLLK [D8K]  2.77
25. LQRASILDMRRDHCEQLQRLKLLK [E14C]  2.79
26. LQRASILDMCRDHEEQLQRLKLLK [R10C]  2.8
27. LQRASILDMRRLHEEQLQRLKLLK [D12L]  2.8
28. LQRASILDMRRMHEEQLQRLKLLK [D12M]  2.81
29. LQRASILDMRRDHPEQLQRLKLLK [E14P]  2.82
30. LQRARILDMRRDHEEQLQRLKLLK [S5R]  2.83
31. LQRASILDMRRDHNEQLQRLKLLK [E14N]  2.86
32. LQRAHILDMRRDHEEQLQRLKLLK [S5H]  2.86
33. LQRASILDMMRDHEEQLQRLKLLK [R10M]  2.9
34. LQRAVILDMRRDHEEQLQRLKLLK [S5V]  2.92
35. LQRASILDMRRVHEEQLQRLKLLK [D12V]  2.94
36. LQRASILDMRRDHSEQLQRLKLLK [E14S]  2.95
37. LQRASILDMRRDHTEQLQRLKLLK [E14T]  2.96
38. LQRASILDMIRDHEEQLQRLKLLK [R10I]  2.96
39. LQRASILDMRRDHREQLQRLKLLK [E14R]  2.98
40. LQRASILAMRRDHEEQLQRLKLLK [D8A]  3.01
41. LQRAMILDMRRDHEEQLQRLKLLK [S5M]  3.03
42. LQRASILDMRRDHYEQLQRLKLLK [E14Y]  3.04
43. LQRASILDMRRRHEEQLQRLKLLK [D12R]  3.05
44. LQRASILMMRRDHEEQLQRLKLLK [D8M]  3.06
45. LQRASILDMWRDHEEQLQRLKLLK [R10W]  3.06
46. LQRASILQMRRDHEEQLQRLKLLK [D8Q]  3.07
47. LQRASILDMRRDHIEQLQRLKLLK [E14I]  3.08
48. LQRASILDMRRDHGEQLQRLKLLK [E14G]  3.12
49. LQRASILDMRRDHHEQLQRLKLLK [E14H]  3.13
50. LQRASILDMRRKHEEQLQRLKLLK [D12K]  3.15
51. LQRASILDMRRDHLEQLQRLKLLK [E14L]  3.17
52. LQRASILCMRRDHEEQLQRLKLLK [D8C]  3.2
53. LQRASILDMRRIHEEQLQRLKLLK [D12I]  3.2
54. LQRASILDMRRGHEEQLQRLKLLK [D12G]  3.21
55. LQRAKILDMRRDHEEQLQRLKLLK [S5K]  3.21
56. LQRASILDMRRHHEEQLQRLKLLK [D12H]  3.3
57. LQRASILDMRRSHEEQLQRLKLLK [D12S]  3.31
58. LQRASILDMRRDHAEQLQRLKLLK [E14A]  3.32
59. LQRASILDMVRDHEEQLQRLKLLK [R10V]  3.33
60. LQRASILDMRRDHEDQLQRLKLLK [E15D]  3.34
61. LQRASILDMERDHEEQLQRLKLLK [R10E]  3.35
62. LQRASILDMARDHEEQLQRLKLLK [R10A]  3.36
63. LQRASILDMRRYHEEQLQRLKLLK [D12Y]  3.37
64. LQRASILDMRRPHEEQLQRLKLLK [D12P]  3.38
65. LQRASILDMRRDHEAQLQRLKLLK [E15A]  3.4
66. LQRASILDMRRAHEEQLQRLKLLK [D12A]  3.41
67. LQRASILDMRRDHKEQLQRLKLLK [E14K]  3.43
68. LQRASILDMDRDHEEQLQRLKLLK [R10D]  3.44
69. LQRASILDMHRDHEEQLQRLKLLK [R10H]  3.45
70. LQRASRLDMRRDHEEQLQRLKLLK [I6R]  3.46
71. LQRASILNMRRDHEEQLQRLKLLK [D8N]  3.48
72. LQRAPILDMRRDHEEQLQRLKLLK [S5P]  3.48
73. LQRASILDMRRDHQEQLQRLKLLK [E14Q]  3.49
74. LQRASILTMRRDHEEQLQRLKLLK [D8T]  3.49
75. LQRASILPMRRDHEEQLQRLKLLK [D8P]  3.51
76. LQRASILDMQRDHEEQLQRLKLLK [R10Q]  3.51
77. LQRATILDMRRDHEEQLQRLKLLK [S5T]  3.52
78. LQRASILDMPRDHEEQLQRLKLLK [R10P]  3.53
79. LQRASILDMRRDHDEQLQRLKLLK [E14D]  3.6
80. LQRASILSMRRDHEEQLQRLKLLK [D8S]  3.6
81. LQRASILHMRRDHEEQLQRLKLLK [D8H]  3.61
82. LQRANILDMRRDHEEQLQRLKLLK [S5N]  3.65
83. LQRASILDMRRTHEEQLQRLKLLK [D12T]  3.69
84. LQRASILDMRRQHEEQLQRLKLLK [D12Q]  3.71
85. LQRAGILDMRRDHEEQLQRLKLLK [S5G]  3.71
86. LQRASILDMRRNHEEQLQRLKLLK [D12N]  3.78
87. LQRASILDMTRDHEEQLQRLKLLK [R10T]  3.79
88. LQRASILDMGRDHEEQLQRLKLLK [R10G]  3.79
89. LQRAQILDMRRDHEEQLQRLKLLK [S5Q]  3.85
90. LQRASILEMRRDHEEQLQRLKLLK [D8E]  3.86
91. LQRASILDMSRDHEEQLQRLKLLK [R10S]  3.9
92. LQRASILDMNRDHEEQLQRLKLLK [R10N]  3.91
93. LQRASILDMRREHEEQLQRLKLLK [D12E]  3.93
94. LQRASILDMKRDHEEQLQRLKLLK [R10K]  3.97
